This is an account of results in patent US20200407449A1 (PHARMABCINE, published 2020).

As usually defined, the Kd is a measure of binding affinity in units of concentration. A high value points to lower affinity. By koff is commonly meant the rate constant with which the complex falls apart. Low values mean a long-lived complex, high ones a short-lived complex. In general, kon refers to a measure of how fast the partners come together. A high value points to faster complex formation.

Assay [1] addresses T1, hVISTA-Fc (R&D systems. Cat. No. 7126-B7) (human, UniProt Q9H7M9 33-194).
T1 construct: Bought antigen; also called human VISTA-Fc; VISTA-FC Human
T1 sequence: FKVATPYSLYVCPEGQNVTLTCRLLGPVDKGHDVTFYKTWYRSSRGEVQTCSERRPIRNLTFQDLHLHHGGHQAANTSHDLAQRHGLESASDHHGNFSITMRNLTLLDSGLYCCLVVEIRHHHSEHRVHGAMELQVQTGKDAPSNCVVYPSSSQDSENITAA
Kind of assay: Octet (BLI), antibody as ligand on biosensor, VISTA-Fc as analyte. As for the experimental part: (§1) The binding ability of the screened antibody to the antigen was measured using an Octet (ForteBio). For this purpose, the antibody was immobilized on a biosensor, various concentrations of antigen were added to a 96-well plate, and then the binding ability was measured.
Octet was used to evaluate the binding strength of the optimized anti-VISTA antibody while excluding clones with low productivity therefrom, and the experiment was performed in the same manner as the method presented in Example 6 (Table 11).
For orientation: BLI is a label-free optical method that tracks binding on a fibre tip over time.

For assay [2], the target named is T1, hVISTA-Fc (R&D systems. Cat. No. …). Kind of assay: Octet (BLI), antibody immobilised on biosensor, antigen in solution. The protocol:
as §1

The target is the same in assay [3]. Kind of assay: dissociation rate constant of scFv in the screening of optimised clones; antigen not named.

B1: anti-VISTA antibody 1B8 (IgG form) (antibody, V domains shown)
VH: QMQLVQSGAEVKKPGSSVKVSCKASGGSSSNYAISWVRQAPGQGLEWMGGIIPIFGTTSYAQKFQGRVTITADGSMSTAYMELSSLRSEDTAVYYCAKGAIEPWPFYFDNWGQGTLVTVSS
VL: QLVLTQPRSVSGSPGQSVTISCTGTNSDVGAYNYLSWYQQLPGRAPKVIIYDVNKRPSGVPDRFSGSRSGKTASLTISGLQAEDEADYYCAAWDDSLNGLVFGGGTKLTVLG
notes: also called Anti VISTA 3.0(1B8); anti-VISTA mAb 1B8
In assay [1], B1 returned a Kd of 13.6 nM, a koff of 0.00209 s⁻¹ and a kon of 154000 M⁻¹ s⁻¹. In assay [2], the Kd was 9.29 nM, the koff is 0.00103 s⁻¹ and the kon amounted to 111000 M⁻¹ s⁻¹.

B2: PMC-309.3.4SA (antibody, V domains shown)
VH: QVQLVQSGAEVKKPGSSVKVSCKASGGSSSNYAISWVRQAPGQGLEWMGGIIPIFGTTSYAQKFQGRVTITADKSTSTAYMELSSLRSEDTAVYYCAKGAIEPWPFYFDNWGQGTLVTVSS
VL: QSALTQPRSVSGSPGQSVTISCTGTNSDVGAYNYLSWYQQLPGRAPKVIIYDVNKRPSGVPDRFSGSRSGKTASLTISGLQAEDEADYYCAAWDDNLYGLVFGGGTKLTVL
notes: light chain SA; also called PMC-309.3.45A
In assay [1], B2 registered a Kd of 0.606 nM, a koff of 0.000134 s⁻¹ and a kon of 225000 M⁻¹ s⁻¹.

B3: Anti VISTA_H2 (scFv phage clone) (scFv, V domains shown)
VH: QMQLVQSGAEVKKPGSSVKVSCKASGGSSSNYAISWVRQAPGQGLEWMGGIIPIFGTTSYAQKFQGRVTITADGSMSTAYMELSSLRSEDTAVYYCAKGAIEPWPFYFDNWGQGTLVTVSS
VL: QLVLTQPRSVSGSPGQSVTISCTGTNSDVGAYNYLSWYQQLPGRAPKVIIYDVNKRPSGVPDRFSGSRSGKTASLTISGLQAEDEADYYCAAWDDNLNGLVFGGGTKLTVLG
notes: Optimised 1B8 variant that retains the 1B8 heavy-chain variable region, measured as scFv
As for B3, the off-rate constant (koff) in assay [3] was 0.000285 s⁻¹.

B4: PMC-309.3.4w (antibody, V domains shown)
VH: QVQLVQSGAEVKKPGSSVKVSCKASGGSSSNYAISWVRQAPGQGLEWMGGIIPIFGTTSYAQKFQGRVTITADKSTSTAYMELSSLRSEDTAVYYCAKGAIEPWPFYFDNWGQGTLVTVSS
VL: QLVLTQPRSVSGSPGQSVTISCTGTNSDVGAYNYLSWYQQLPGRAPKVIIYDVNKRPSGVPDRFSGSRSGKTASLTISGLQAEDEADYYCAAWDDNLYGLVFGGGTKLTVLG
notes: Heavy chain G-H (framework substituted), wt light chain
In assay [1], B4 showed a Kd of 0.496 nM, a koff of 9.38e-05 s⁻¹ and an on-rate constant (kon) of 189000 M⁻¹ s⁻¹.

B5: Anti VISTA_G1 (scFv phage clone) (scFv, V domains shown)
VH: QMQLVQSGAEVKKPGSSVKVSCKASGGSSSNYAISWVRQAPGQGLEWMGGIIPIFGTTSYAQKFQGRVTITADGSMSTAYMELSSLRSEDTAVYYCAKGAIEPWPFYFDNWGQGTLVTVSS
VL: QLVLTQPRSVSGSPGQSVTISCTGTNSDVGAYNYLSWYQQLPGRAPKVIIYDVNKRPSGVPDRFSGSRSGKTASLTISGLQAEDEADYYCAAWDDSLIGHVFGGGTKLTVLG
notes: as for B3
As for B5, the koff in assay [3] stood at 0.000574 s⁻¹.

B6: Anti VISTA_V3_3 (scFv phage clone) (scFv, V domains shown)
VH: QMQLVQSGAEVKKPGSSVKVSCKASGGSSSNYAISWVRQAPGQGLEWMGGIIPIFGTTSYAQKFQGRVTITADGSMSTAYMELSSLRSEDTAVYYCAKGAIEPWPFYFDNWGQGTLVTVSS
VL: QLVLTQPRSVSGSPGQSVTISCTGTNSDVGAYNYLSWYQQLPGRAPKVIIYDVNKRPSGVPDRFSGSRSGKTASLTISGLQAEDEADYYCAAWDDSLNVLVFGGGTKLTVLG
notes: as for B3
B6 gave an off-rate constant (koff) in assay [3] of 0.00127 s⁻¹.

B7: Anti VISTA_V3_2 (scFv phage clone) (scFv, V domains shown)
VH: QMQLVQSGAEVKKPGSSVKVSCKASGGSSSNYAISWVRQAPGQGLEWMGGIIPIFGTTSYAQKFQGRVTITADGSMSTAYMELSSLRSEDTAVYYCAKGAIEPWPFYFDNWGQGTLVTVSS
VL: QLVLTQPRSVSGSPGQSVTISCTGTNSDVGAYNYLSWYQQLPGRAPKVIIYDVNKRPSGVPDRFSGSRSGKTASLTISGLQAEDEADYYCAAWDDSLNDLVFGGGTKLTVLG
notes: as for B3
The molecule B7 displayed an off-rate constant (koff) in assay [3] of 0.00108 s⁻¹.

B8: Anti VISTA_B5 (scFv phage clone) (scFv, V domains shown)
VH: QMQLVQSGAEVKKPGSSVKVSCKASGGSSSNYAISWVRQAPGQGLEWMGGIIPIFGTTSYAQKFQGRVTITADGSMSTAYMELSSLRSEDTAVYYCAKGAIEPWPFYFDNWGQGTLVTVSS
VL: QLVLTQPRSVSGSPGQSVTISCTGTNSDVGAYNYLSWYQQLPGRAPKVIIYDVNKRPSGVPDRFSGSRSGKTASLTISGLQAEDEADYYCAAWDDDLNGLVFGGGTKLTVLG
notes: Optimised 1B8 light-chain CDR3 variant, measured as scFv
In turn, B8 gave an off-rate constant (koff) in assay [3] of 0.000616 s⁻¹.

B9: Anti VISTA_V3_4 (scFv phage clone) (scFv, V domains shown)
VH: QMQLVQSGAEVKKPGSSVKVSCKASGGSSSNYAISWVRQAPGQGLEWMGGIIPIFGTTSYAQKFQGRVTITADGSMSTAYMELSSLRSEDTAVYYCAKGAIEPWPFYFDNWGQGTLVTVSS
VL: QLVLTQPRSVSGSPGQSVTISCTGTNSDVGAYNYLSWYQQLPGRAPKVIIYDVNKRPSGVPDRFSGSRSGKTASLTISGLQAEDEADYYCAAWDDNSDFHVFGGGTKLTVLG
notes: as for B3
In assay [3], B9 registered a koff of 0.00222 s⁻¹.

B10: Anti VISTA_V3_2 (IgG form) (antibody, V domains shown)
VH: QMQLVQSGAEVKKPGSSVKVSCKASGGSSSNYAISWVRQAPGQGLEWMGGIIPIFGTTSYAQKFQGRVTITADGSMSTAYMELSSLRSEDTAVYYCAKGAIEPWPFYFDNWGQGTLVTVSS
VL: QLVLTQPRSVSGSPGQSVTISCTGTNSDVGAYNYLSWYQQLPGRAPKVIIYDVNKRPSGVPDRFSGSRSGKTASLTISGLQAEDEADYYCAAWDDSLNDLVFGGGTKLTVLG
In assay [1], B10 came in with an equilibrium dissociation constant (Kd) of 12.8 nM, a koff of 0.00191 s⁻¹ and a kon of 149000 M⁻¹ s⁻¹.

B11: Anti VISTA_V3_1 (scFv phage clone) (scFv, V domains shown)
VH: QMQLVQSGAEVKKPGSSVKVSCKASGGSSSNYAISWVRQAPGQGLEWMGGIIPIFGTTSYAQKFQGRVTITADGSMSTAYMELSSLRSEDTAVYYCAKGAIEPWPFYFDNWGQGTLVTVSS
VL: QLVLTQPRSVSGSPGQSVTISCTGTNSDVGAYNYLSWYQQLPGRAPKVIIYDVNKRPSGVPDRFSGSRSGKTASLTISGLQAEDEADYYCAAWDDSLYGLVFGGGTKLTVLG
notes: as for B3
On to B11, for which, in assay [3], the dissociation rate constant (koff) worked out at 0.000487 s⁻¹.

B12: Anti VISTA_V3_1 (IgG form) (antibody, V domains shown)
VH: QMQLVQSGAEVKKPGSSVKVSCKASGGSSSNYAISWVRQAPGQGLEWMGGIIPIFGTTSYAQKFQGRVTITADGSMSTAYMELSSLRSEDTAVYYCAKGAIEPWPFYFDNWGQGTLVTVSS
VL: QLVLTQPRSVSGSPGQSVTISCTGTNSDVGAYNYLSWYQQLPGRAPKVIIYDVNKRPSGVPDRFSGSRSGKTASLTISGLQAEDEADYYCAAWDDSLYGLVFGGGTKLTVLG
In assay [1], B12 had an equilibrium dissociation constant (Kd) of 2.86 nM, a koff of 0.00015 s⁻¹ and a kon of 52500 M⁻¹ s⁻¹.

B13: PMC-309.3.3 (antibody, V domains shown)
VH: QMQLVQSGAEVKKPGSSVKVSCKASGGSSSNYAISWVRQAPGQGLEWMGGIIPIFGTTSYAQKFQGRVTITADGSMSTAYMELSSLRSEDTAVYYCAKGAIEPWPFYFDNWGQGTLVTVSS
VL: QLVLTQPRSVSGSPGQSVTISCTGTNSDVGAYNYLSWYQQLPGRAPKVIIYDVNKRPSGVPDRFSGSRSGKTASLTISGLQAEDEADYYCAAWDDNLYGLVFGGGTKLTVLG
In assay [1], B13 gave a Kd of 0.516 nM, an off-rate constant (koff) of 9.56e-05 s⁻¹ and a kon of 185000 M⁻¹ s⁻¹.

B14: anti-VISTA antibody 2B7 (IgG form) (antibody, V domains shown)
VH: QVQLVQSGGGLVKPGGSLRLSCAASGFTFSGSAMHWVRQASGKGLEWVGRIRSKANSYATAYAASVKGRFTISRDDSKNTAYLQMNSLKTEDTAVYYCSRVNSGYYGPDYWGKGTLVTVSS
VL: not shown
In assay [2], B14 yielded a dissociation constant Kd of 5.8 nM, a koff of 0.000142 s⁻¹ and a kon of 24500 M⁻¹ s⁻¹.
